Laboratory results taken from CN116265487A.

Target: 重组蛋白hVEGF-Fc (human)
Assay: cell-based or functional assay

重组蛋白hVEGF-Fc (human), sequence (chain, as listed by the source limits assumed): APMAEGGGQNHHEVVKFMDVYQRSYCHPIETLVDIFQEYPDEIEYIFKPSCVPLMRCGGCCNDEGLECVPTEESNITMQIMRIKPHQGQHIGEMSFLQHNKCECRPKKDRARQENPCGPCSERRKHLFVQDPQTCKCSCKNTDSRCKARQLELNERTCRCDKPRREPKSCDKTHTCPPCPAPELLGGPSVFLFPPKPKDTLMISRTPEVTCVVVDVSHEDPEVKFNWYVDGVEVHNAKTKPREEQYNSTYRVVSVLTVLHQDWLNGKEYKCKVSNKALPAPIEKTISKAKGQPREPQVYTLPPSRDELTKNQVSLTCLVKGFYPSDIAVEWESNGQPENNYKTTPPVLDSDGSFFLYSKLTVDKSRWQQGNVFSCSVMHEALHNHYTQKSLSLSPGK

中和VEGF活性IC 50: 0.582 nM
Substance: Faricimab (bispecific antibody)
